The labels stand for the following.
B1: CPEB3 Ribozyme (parent)
chain: GGGGGCCACAGCAGAAGCGUUCACGUCGCGGCCCCUGUCAGAUUCUGGUGAAUCUGCGAAUUCUGCUGU

In this data set the parent is B1. The data set is described as follows: self-cleavage, relative activity (ratio to wild type); higher = more cleavage; co-transcriptional.
Regarding GGGGGCCACAGCAGAAGCGUUCACGUCGCGGCCCCUGUCAGAUUCUAGUCAAUCUGCGAAUUCUGCUGU [G47A G50C], the self-cleavage is 1.
Consider GGGGGCCACAGCAGAAGCGUUCACGUCGCGGCCCCUGUCAGAUUCUCGUGAAUCUGGGAAUUCUGCUGU [G47C C57G], for which the self-cleavage worked out at 0.299.
As for GGGGGCCACAGCAGAAGCGUUCACGUCGCGGCCCCUGUCAGAUUCGGGUGAAUCUGCGAAUUGUGCUGU [U46G C63G], the self-cleavage came to 0.825.
As for GGGGGCCACAGCAGAAGCGUUCACGUCGCGGCCCCUGUCAGAUUCUAGUGAAUCUGCGAAUUUUGCUGU [G47A C63U], the self-cleavage stood at 1.02.
Regarding GGGGGCCACAGCAGAAGCGUUCACGUCGCGGCCCCUGUCAGAUUCUAGUGAAUCUGCGAAUUGUGCUGU [G47A C63G], the self-cleavage came to 0.922.
With GGGGGCCACAGCAGAAGCGUUCACGUCGCGGCCCCUGUCAGAUUCUCGAGAAUCUGCGAAUUCUGCUGU [G47C U49A], the self-cleavage was 1.
Regarding GGGGGCCACAGCAGAAGCGUUCACGUCGCGGCCCCUGUCAGAUUCCGGUGAAUCUGCCAAUUCUGCUGU [U46C G58C], the self-cleavage stood at 0.976.
As to GGGGGCCACAGCAGAAGCGUUCACGUCGCGGCCCCUGUCAGAUUCCGGUGAAUCUGCUAAUUCUGCUGU [U46C G58U], the self-cleavage amounted to 0.933.
For GGGGGCCACAGCAGAAGCGUUCACGUCGCGGCCCCUGUCAGAUUCGGGUGAAUCUGCGCAUUCUGCUGU [U46G A59C], the self-cleavage is 0.828.
With GGGGGCCACAGCAGAAGCGUUCACGUCGCGGCCCCUGUCAGAUUCGGGUGAAUUUGCGAAUUCUGCUGU [U46G C54U], the self-cleavage was 0.992.
For the variant GGGGGCCACAGCAGAAGCGUUCACGUCGCGGCCCCUGUCAGAUUCGGGUGAAUAUGCGAAUUCUGCUGU [U46G C54A], the self-cleavage worked out at 0.845.
Then GGGGGCCACAGCAGAAGCGUUCACGUCGCGGCCCCUGUCAGAUUCGGGGGAAUCUGCGAAUUCUGCUGU [U46G U49G], with 0.972.
The figure for GGGGGCCACAGCAGAAGCGUUCACGUCGCGGCCCCUGUCAGAUUCUAGUGAAUCUGCGAAAUCUGCUGU [G47A U61A] is 0.941; for GGGGGCCACAGCAGAAGCGUUCACGUCGCGGCCCCUGUCAGAUUCUAGUGAAUCUGCGAAUUCUACUGU [G47A G65A] it is 0.936.
Turning to GGGGGCCACAGCAGAAGCGUUCACGUCGCGGCCCCUGUCAGAUUCUCCUGAAUCUGCGAAUUCUGCUGU [G47C G48C], the self-cleavage is 1.05.
GGGGGCCACAGCAGAAGCGUUCACGUCGCGGCCCCUGUCAGAUUCUCUUGAAUCUGCGAAUUCUGCUGU [G47C G48U]: the self-cleavage came to 0.995.
GGGGGCCACAGCAGAAGCGUUCACGUCGCGGCCCCUGUCAGAUUCUAGUGAAUCUGCGAAUUCUGCUGC [G47A U69C]: the self-cleavage was 1.06.
As for GGGGGCCACAGCAGAAGCGUUCACGUCGCGGCCCCUGUCAGAUUCCGGUGAAUCUGCGAAUUCUGCUUU [U46C G68U], the self-cleavage amounted to 1.02.
Take GGGGGCCACAGCAGAAGCGUUCACGUCGCGGCCCCUGUCAGAUUCUAGUGAAUCUGCGAAUUCGGCUGU [G47A U64G]: the self-cleavage was 0.959.
On to GGGGGCCACAGCAGAAGCGUUCACGUCGCGGCCCCUGUCAGAUUCGGGUGAAUCUGCGAAUUCUUCUGU [U46G G65U], for which the self-cleavage stood at 0.913.
The figure for GGGGGCCACAGCAGAAGCGUUCACGUCGCGGCCCCUGUCAGAUUCGGGUGAAUCUGCGAAUUCUACUGU [U46G G65A] is 0.928; for GGGGGCCACAGCAGAAGCGUUCACGUCGCGGCCCCUGUCAGAUUCUAGUGAAUCUGCGAGUUCUGCUGU [G47A A60G] it is 0.944; for GGGGGCCACAGCAGAAGCGUUCACGUCGCGGCCCCUGUCAGAUUCUAGUGAAUCUGCGACUUCUGCUGU [G47A A60C] it is 0.397.
Regarding GGGGGCCACAGCAGAAGCGUUCACGUCGCGGCCCCUGUCAGAUUCCGGUGAAUCUGCGAAUUCUUCUGU [U46C G65U], the self-cleavage was 0.629.
For the variant GGGGGCCACAGCAGAAGCGUUCACGUCGCGGCCCCUGUCAGAUUCUAGUGAAUUUGCGAAUUCUGCUGU [G47A C54U], the self-cleavage was determined as 0.972.
For GGGGGCCACAGCAGAAGCGUUCACGUCGCGGCCCCUGUCAGAUUCUCGUAAAUCUGCGAAUUCUGCUGU [G47C G50A], the self-cleavage was determined as 0.965.
On to GGGGGCCACAGCAGAAGCGUUCACGUCGCGGCCCCUGUCAGAUUCUCGUGAAUAUGCGAAUUCUGCUGU [G47C C54A], for which the self-cleavage turned out to be 0.949.
With GGGGGCCACAGCAGAAGCGUUCACGUCGCGGCCCCUGUCAGAUUCCGGUGAAACUGCGAAUUCUGCUGU [U46C U53A], the self-cleavage came out at 0.933.
With GGGGGCCACAGCAGAAGCGUUCACGUCGCGGCCCCUGUCAGAUUCCGGUGAACCUGCGAAUUCUGCUGU [U46C U53C], the self-cleavage worked out at 0.878.
On to GGGGGCCACAGCAGAAGCGUUCACGUCGCGGCCCCUGUCAGAUUCUAGUGAAUCAGCGAAUUCUGCUGU [G47A U55A], for which the self-cleavage stood at 1.
With GGGGGCCACAGCAGAAGCGUUCACGUCGCGGCCCCUGUCAGAUUCGGGUGAAUCUGCGAAUUCUGCUGU [U46G], the self-cleavage is 0.994.
Turning to GGGGGCCACAGCAGAAGCGUUCACGUCGCGGCCCCUGUCAGAUUCUAGUGCAUCUGCGAAUUCUGCUGU [G47A A51C], the self-cleavage came to 0.983.
GGGGGCCACAGCAGAAGCGUUCACGUCGCGGCCCCUGUCAGAUUCUCGUGAAUCUGCGAAUCCUGCUGU [G47C U62C]: the self-cleavage is 0.91.
With GGGGGCCACAGCAGAAGCGUUCACGUCGCGGCCCCUGUCAGAUUCCGGUGAAUCUCCGAAUUCUGCUGU [U46C G56C], the self-cleavage is 0.785.
Take GGGGGCCACAGCAGAAGCGUUCACGUCGCGGCCCCUGUCAGAUUCCGGUGAAUCUACGAAUUCUGCUGU [U46C G56A]: the self-cleavage was 0.933.
For GGGGGCCACAGCAGAAGCGUUCACGUCGCGGCCCCUGUCAGAUUCCGGUUAAUCUGCGAAUUCUGCUGU [U46C G50U], the self-cleavage is 0.984.
Then GGGGGCCACAGCAGAAGCGUUCACGUCGCGGCCCCUGUCAGAUUCUCGUGAAUCUGCGAAUUGUGCUGU [G47C C63G], with 0.891; and GGGGGCCACAGCAGAAGCGUUCACGUCGCGGCCCCUGUCAGAUUCUCGUGAAUCUGCGAAUUAUGCUGU [G47C C63A], with 0.944.
On to GGGGGCCACAGCAGAAGCGUUCACGUCGCGGCCCCUGUCAGAUUCGGGUGAAUCUGCGAAUUCUGCUAU [U46G G68A], for which the self-cleavage was determined as 1.01.

The record behind these values is the RNAGym collection of RNA variant scans (doi:10.7554/elife.80360).
